These results are taken from paper doi:10.1101/2025.08.09.669497 (bioRxiv, 2025).

Like-named read-outs stand apart in the source and are kept apart here.

Broadly, the stoichiometry N is the number of molecules, sites or subunits per partner or assembly. By Kd is commonly meant the concentration at which binding is half-saturated. The low end stands for higher affinity, the high end for lower affinity.

Experiment [1] has as its target BKPyV VP1 pentameric core (residues 26-297) (BK polyomavirus (BKPyV)) (UniProt P03088). The experiment is described as follows: crystal structure.
Experiment [2] has as its target 319C07 (Potravitug), human IgG monoclonal antibody (human). As to the kind of experiment: BLI. On the technique in general: Biolayer interferometry detects binding as a change in optical thickness at a sensor tip.
For experiment [3], the target named is T1, BKPyV VP1 pentameric core (residues 26-297) (BK polyomavirus, strain ; …, UniProt P03088). As to the kind of experiment: crystal structure.
The target of experiment [4] is BKPyV VP1 pentamer, genotype III-AS (M23122), ALFA-tagged (BK polyomavirus (BKPyV), strain AS, UniProt P14996). As to the kind of experiment: BLI.
The target of experiment [5] is T1, BKPyV VP1 pentameric core (residues …). As to the kind of experiment: crystal structure. The source holds these as a separate data set.
Experiment [6] shares this target. The experiment is described as follows: crystal structure. The source holds these as a separate data set.

In experiment [1], “BKPyV VP1 pentameric core (residues 26-297) (from UniProt P03088 26-297) (domain or fragment)” returned a stoichiometry N of 5.

In experiment [2], “BKPyV VP1 single-point mutant K69N in the Dunlop background (from UniProt P03088 1-362) (natural protein)” returned a Kd of 4.5 µM and a fold reduction of affinity against the Dunlop background greater than 1000 fold.

B1: ORT-VHH17 (VHH)
VHH: EVQLVESGGGLVQAGGSLRLSCAASGRDLSNYDMGWFRQAPGKEREFVATIKWRSGGTNHAESVKGRFTISRDNAKNTVYLQMSSLKPEDTAVYYCAAAPNWLGYSFKVDDYIYWGQGTQVTVSS
Consider B1, for which the “stoichiometry N” value in experiment [3] amounted to 1 nanobody per VP1 monomer.

B2: 319C07 (Potravitug), human IgG monoclonal antibody (antibody, V domains shown)
VH: QVQLQQWGAGLLKPSETLSLTCAVYRGSFSAYYWTWFRQPPGKGLEWIGEINHRGYTNYNPSLRGRVSISVDTSKKQFSLKLRSVNAADTAVYYCATLRSTSGWHDYFDYWGQGTLVTVSS
VL: EIVLTQSPGTLSLSPGERATLSCRASQSVSSSYLAWYQQTPGQAPRLLIYGASSRATGIPDRFSGSGSGTDFTLTISRLEPEDFVVYFCLQYGSSPLTFGPGTKVDIK
In the case of B2, the binding result in experiment [4] was “binds”.

B3: Potravitug single-chain variable fragment (scFv-319C07) (scFv, V domains shown)
VH: B2 VH
VL: B2 VL
Turning to B3, the “stoichiometry N” value in experiment [5] is 3 scFv per VP1 pentamer.

B4: ORT-VHH16 (VHH)
VHH: EVQLVESGGGLVQAGGSLRLSCAASGRTFDHYAMGWFRQAPGKERELVARISSGGGTTNYADSVKGRFTISRDNAKNTVSLQMNSLKPEDTAVYYCVGEIQYGTRYYWGQGTQVTVSS
Consider B4, for which, in experiment [6], the “stoichiometry N” value is 1 nanobody per VP1 monomer.
